Here are results for one substance from publication PMC11203576.

The assay concerns the target SARS-CoV-2 spike protein RBD, original (wild-type), sfGFP fusion (SARS-CoV-2) (UniProt P0DTC2). The assay is described as follows: SPR; Biacore T200; […] (0.01 M HEPES, 0.15 M NaCl, 3 mM EDTA, 0.05% surfactant P20, […]. In general terms: Surface plasmon resonance follows binding to a sensor surface in real time, without labels.

The term Kd denotes the concentration at which binding is half-saturated. Read a high Kd as weaker binding. Regarding Jacalin (natural protein), the Kd came to 0.428 µM.
